Patent US20100048482

Molecular target: heat shock protein 90 (HSP90), endogenous, rat heart, P82995

B1: epsilon protein kinase C (εPKC), endogenous, rat heart (protein)
chain: MVVFNGLLKIKICEAVSLKPTAWSLRHAVGPRPQTFLLDPYIALNVDDSRIGQTATKQKTNSPAWHDEFVTDVCNGRKIELAVFHDAPIGYDDFVANCTIQFEELLQNGSRHFEDWIDLEPEGKVYVIIDLSGSSGEAPKDNEERVFRERMRPRKRQGAVRRRVHQVNGHKFMATYLRQPTYCSHCRDFIWGVIGKQGYQCQVCTCVVHKRCHELIITKCAGLKKQETPDEVGSQRFSVNMPHKFGIHNYKVPTFCDHCGSLLWGLLRQGLQCKVCKMNVHRRCETNVAPNCGVDARGIAKVLADLGVTPDKITNSGQRRKKLAAGAESPQPASGNSPSEDDRSKSAPTSPCDQELKELENNIRKALSFDNRGEEHRASSSTDGQLASPGENGEVRQGQAKRLGLDEFNFIKVLGKGSFGKVMLAELKGKDEVYAVKVLKKDVILQDDDVDCTMTEKRILALARKHPYLTQLYCCFQTKDRLFFVMEYVNGGDLMFQIQRSRKFDEPRSGFYAAEVTSALMFLHQHGVIYRDLKLDNILLDAEGHSKLADFGMCKEGILNGVTTTTFCGTPDYIAPEILQELEYGPSVDWWALGVLMYEMMAGQPPFEADNEDDLFESILHDDVLYPVWLSKEAVSILKAFMTKNPHKRLGCVAAQNGEDAIKQHPFFKEIDWVLLEQKKMKPPFKPRIKTKRDVNNFDQDFTREEPILTLVDEAIVKQINQEEFKGFSYFGEDLMP
CPK release into the effluent during reperfusion, hearts perfused with ψεHSP90 peptide (1 µM): perfusion with ψεHSP90 peptide decreased CPK release by 47%
